The text below walks through data of patent publication US20030185836A1 (published 2003).

B2: S15 glycoprotein (15 kDa sporozoite surface protein of Cryptosporidium parvum) (other)
chain: SEETSEAAATVDLFAFTLDGGKRIEVAVPNVEDASKRDKYSLVADDKPFYTGANSGTTNGVYRLNENGDLVDKDNTVLLKDAG
modifications: glycosylated (labelled by H. pomatia lectin); glycosyl phosphatidyl inositol anchor predicted at the C-terminal glycine (residue 305 of S60)
notes: Native protein from sporozoites/oocysts, on blots after SDS-PAGE; also called 15 kDa protein band; 15 kDa protein

In test [1] the target is B2. Description: co-fractionation: Triton X-114 phase separation, isoelectric focusing.
The target in test [2] is T1, Canavalia ensiformis lectin (Con A) (Canavalia ensiformis, UniProt P02866 30-281, limits assumed, biotin-conjugated). The test can be described thus: lectin blot after SDS-PAGE of sporozoite surface proteins.
Test [3] addresses T1, Canavalia ensiformis lectin (Con A). The test can be described thus: lectin Western blot of Triton X-114 fractionated sporozoite proteins. On the technique in general: Immunoblotting shows a protein as a band on a membrane.
Protocol: Excysted oocysts or purified sporozoites were resuspended to 1×10⁹ cells/ml in ice-cold TBS (10 mM Tris, pH 8.0, 140 mM NaCl) containing a protease inhibitor mixture of 50 μM leupeptin (Sigma),.10 μM E-64 (Sigma), 1 mM phenylmethylsulfonylfluoride (Sigma). […] Lysates were then centrifuged (100,000×g for 1 h at 4° C.) and the supernatant warmed for 3 minutes to 37° C. to induce phase separation. The water phase and the membrane protein enriched detergent phase were separated by centrifugation and each phase reextracted once. The phases were adjusted to the original volume and proteins precipitated by adding 1/10 volume of ice cold 100% (w/v) trichloroacetic acid. After 30 minutes precipitates were pelleted by centrifugation and washed twice in 70% (v/v) ice-cold ethanol and once with acetone. Pellets were then air dried and redissolved in 1-D or 2-D sample buffer for electrophoretic analysis.
For lectin analysis, membranes blocked with 1% (w/v) BSA in PBS were incubated for 1 h with biotin-conjugated lectins (Sigma) in BSA/PBS and a further 3 h with 1:10,000 alkaline-phosphatase-conjugated ExtrAvidin in PBS. […] Membranes were developed in 1 M diethanolamine, pH 9.8, containing 1 mM MgCl₂, 0.5 mM 5-bromo-4-chloro-3-indolyl phosphate and 0.5 mM nitroblue tetrazolium.

B1: S45 glycoprotein (45 kDa sporozoite surface protein of Cryptosporidium parvum) (other)
chain: DVPVEGSSSSSSSSSSSSSSSSSSSSSTSTVAPANKARTGEDAEGSQDSSGTEASGSQGSEEEGSEDDGQTSAASQPTTPAQSEGATTETIEATPKEECGTSFVMWFGEGTPAATLKCGAYTIVYAPIKDQTDPAPRYISGEVTSVTFEKSDNTVKIKVNGQDFSTLSANSSSPTENGGSAGQASSR
modifications: long stretch of serine residues after DVPVEG glycosylated with single residues of alpha N-acetyl galactosamine (first serine only partially); residues 180, 186 and 188 (S60 numbering) thought to be modified lysines
notes: Native protein from sporozoites/oocysts; also called 45 kDa protein; 45 kDa band
For B1, the binding result in test [1] is listed as “binds”; in test [2], “no binding”. Consider B2, for which the binding result in test [2] is given as “no binding”.

B3: S30 (minor sporozoite protein, proteolytic degradation product of S45) (other)
chain: TGEDAEGSQDSSGTEASGSQGSEEEGSEDDGQTSAASQPTTPAQSEGATTETIEATPKEECGTSFVMWFGEGTPAATLKCGAYTIVYAPIKDQTDPAPRYISGEVTSVTFEKSDNTVKIKVNGQDFSTLSANSSSPTENGGSAGQASSR
B3: the binding result in test [3] is on record as “no binding”.
